In patent publication US20240109958A1 one finds Shared sequences and Unique sequences data, which are given here for 3 molecules.

The experiment has as its target internal GGX peptides (genome-encoded GGX sequences exposed by trypsin digestion of HEK293 lysate). As to the kind of experiment: immunoaffinity enrichment from trypsin-digested HEK293 lysate, LC-MS/MS; count of internal GGX sequences enriched.

B1: anti-GGX monoclonal antibody 2E9 (rabbit IgG) (antibody, V domains shown)
VH: QKQLMESGGRLVTPGTPLTLTCKVSGFSLSSYYMNWVRQAPGKGLEWIGIMFPNGKIYYATWAKGRFTISKTSTTVDLKIISPTTEDTATYFCTGDDSGDVNIWGPGTLVTVSS
VL: DIVLTQTASPVSAAVGGTVTINCQSSQSVYTNNRLAWYQQKPGQPAKEMIYGASTLPSGVSSRFKGSGSGTQFALTISDVQCDDAATYYCLGEFDCTSADCFVFGGGTEVVVKG
For B1, the Shared sequences was determined as 14 sequences and the Unique sequences was determined as 41 sequences.

B2: anti-GGX monoclonal antibody 2H2 (rabbit IgG) (antibody, V domains shown)
VH: QSVEESRGRLVTPGTPLTLTCKVSGFSLSSYYMNWVRQAPGKGLEWIGIMFPNGKIYYATWAKGRFTISKTSTTVDLKIISPTTEDTATYFCTGDDSGDVNIWGPGTLVTVSS
VL: DPMLTQTASPVSAAVGGTVTINCQSSQSVYSNNRLAWYQQKPGQPPKEMIYGASTLPSGVSSRFKGSGSGTQFTLTISDVQCDDAATYYCLGTYDCLSADCLAFGGGTEVVVKG
In the case of B2, the Shared sequences was 20 sequences and the Unique sequences amounted to 47 sequences.

B3: anti-GGX monoclonal antibody 2B12 (rabbit IgG) (antibody, V domains shown)
VH: QSVEESGGGLVTPGGALTLTCTASGFSLNRHWMNWVRQAPGKGLEWIGAINESGRTYYATWAKGRFFISKTTTTVDLKITSPTTADTATYFCVRDDDVSNFWGPGTLVTVSS
VL: DPMLTQTPSSVSAAVGGTVSINCQSTKSVYKYNHLSWYQQKPGQPPKQLIFPASTLQSGVPSRFSGSGSGTQFTLTISDVQCDDAATYYCLGLYDCRSGDCNVFGGGTKLEIKG
Molecule B3 returned a Shared sequences of 8 sequences and a Unique sequences of 8 sequences.
